Assay results as given in publication PMC9719028 (Life Science Alliance, 2022).

How the values were obtained:
[1] = molecular target: T1, DIRC2-AA (Homo sapiens, UniProt Q96SL1, L14A/L15A); assay: inhibition of specific [3H]pyridoxine uptake in transfected COS-7 cells; format: cell-based; settings: 10 nM [3H]pyridoxine, 1 mM test compound, pH 5.0, 37 °C, 1 min
T1 construct: gene SLC49A4; untagged DIRC2-AA in pCI-neo, N-terminal dileucine motif (E10RQPL14L15) replaced by dialanine, redirected to plasma membrane of transiently transfected COS-7 cells; FLAG-tagged form mostly present as cleaved product
T1 sequence (Q96SL1 1-478 L14A/L15A): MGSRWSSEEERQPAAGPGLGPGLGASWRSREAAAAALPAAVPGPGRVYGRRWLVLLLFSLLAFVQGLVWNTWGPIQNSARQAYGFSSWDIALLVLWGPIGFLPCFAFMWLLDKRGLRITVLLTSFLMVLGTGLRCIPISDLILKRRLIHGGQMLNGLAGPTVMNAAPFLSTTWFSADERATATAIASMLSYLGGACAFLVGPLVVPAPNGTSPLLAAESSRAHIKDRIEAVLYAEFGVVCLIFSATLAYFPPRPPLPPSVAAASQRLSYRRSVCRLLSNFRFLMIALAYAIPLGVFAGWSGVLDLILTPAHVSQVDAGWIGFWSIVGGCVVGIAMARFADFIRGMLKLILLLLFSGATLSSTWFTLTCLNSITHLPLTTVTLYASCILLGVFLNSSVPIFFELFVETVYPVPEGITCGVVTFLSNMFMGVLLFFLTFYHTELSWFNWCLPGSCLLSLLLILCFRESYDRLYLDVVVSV

[2] = substrate: Cc1ncc(CO)c(CO)c1O; assay: cells, lysate or membranes; settings: pH 5.0, 37 °C, 1 min, labelled compound

With `Cc1ncc(CO)c(C)c1O` [4-deoxypyridoxine] as the molecule, how does the “% inhibition at 1 mM” value [1] read?
Its value is “only 4-deoxypyridoxine other than pyridoxine significantly inhibited the DIRC2-AA–specific uptake”.

B1: DIRC2-AA (Homo sapiens; L14A/L15A) (protein)
chain: MGSRWSSEEERQPAAGPGLGPGLGASWRSREAAAAALPAAVPGPGRVYGRRWLVLLLFSLLAFVQGLVWNTWGPIQNSARQAYGFSSWDIALLVLWGPIGFLPCFAFMWLLDKRGLRITVLLTSFLMVLGTGLRCIPISDLILKRRLIHGGQMLNGLAGPTVMNAAPFLSTTWFSADERATATAIASMLSYLGGACAFLVGPLVVPAPNGTSPLLAAESSRAHIKDRIEAVLYAEFGVVCLIFSATLAYFPPRPPLPPSVAAASQRLSYRRSVCRLLSNFRFLMIALAYAIPLGVFAGWSGVLDLILTPAHVSQVDAGWIGFWSIVGGCVVGIAMARFADFIRGMLKLILLLLFSGATLSSTWFTLTCLNSITHLPLTTVTLYASCILLGVFLNSSVPIFFELFVETVYPVPEGITCGVVTFLSNMFMGVLLFFLTFYHTELSWFNWCLPGSCLLSLLLILCFRESYDRLYLDVVVSV
With B1 as the molecule, how does the Km ([2]; Hanks' solution with MES (NaCl present), H+-coupled uptake) read?
Its Km is 522 ± 63 µM.

B2: EGFP-DIRC2-AA (Homo sapiens; L14A/L15A) (protein)
chain: MGSRWSSEEERQPAAGPGLGPGLGASWRSREAAAAALPAAVPGPGRVYGRRWLVLLLFSLLAFVQGLVWNTWGPIQNSARQAYGFSSWDIALLVLWGPIGFLPCFAFMWLLDKRGLRITVLLTSFLMVLGTGLRCIPISDLILKRRLIHGGQMLNGLAGPTVMNAAPFLSTTWFSADERATATAIASMLSYLGGACAFLVGPLVVPAPNGTSPLLAAESSRAHIKDRIEAVLYAEFGVVCLIFSATLAYFPPRPPLPPSVAAASQRLSYRRSVCRLLSNFRFLMIALAYAIPLGVFAGWSGVLDLILTPAHVSQVDAGWIGFWSIVGGCVVGIAMARFADFIRGMLKLILLLLFSGATLSSTWFTLTCLNSITHLPLTTVTLYASCILLGVFLNSSVPIFFELFVETVYPVPEGITCGVVTFLSNMFMGVLLFFLTFYHTELSWFNWCLPGSCLLSLLLILCFRESYDRLYLDVVVSV
For B2, which Km ([2]; Hanks' solution with MES (NaCl present), H+-coupled uptake, caption names it FLAG-DIRC2-AA once, text says EGFP-DIRC2-AA) is on record?
The Km was 476 ± 19 µM.

B3: EGFP-THTR2 (Homo sapiens) (protein)
chain: MDCYRTSLSSSWIYPTVILCLFGFFSMMRPSEPFLIPYLSGPDKNLTSAEITNEIFPVWTYSYLVLLLPVFVLTDYVRYKPVIILQGISFIITWLLLLFGQGVKTMQVVEFFYGMVTAAEVAYYAYIYSVVSPEHYQRVSGYCRSVTLAAYTAGSVLAQLLVSLANMSYFYLNVISLASVSVAFLFSLFLPMPKKSMFFHAKPSREIKKSSSVNPVLEETHEGEAPGCEEQKPTSEILSTSGKLNKGQLNSLKPSNVTVDVFVQWFQDLKECYSSKRLFYWSLWWAFATAGFNQVLNYVQILWDYKAPSQDSSIYNGAVEAIATFGGAVAAFAVGYVKVNWDLLGELALVVFSVVNAGSLFLMHYTANIWACYAGYLIFKSSYMLLITIAVFQIAVNLNVERYALVFGINTFIALVIQTIMTVIVVDQRGLNLPVSIQFLVYGSYFAVIAGIFLMRSMYITYSTKSQKDVQSPAPSENPDVSHPEEESNIIMSTKL
How did the Km ([2]; Hanks' solution with MES) turn out when B3 was run?
The Km was 20 ± 1 µM.
